In publication PMC5864733:

Target: CsrA (Escherichia coli EPEC O127:H6 E2348/69, UniProt B7UHB4 1-61)
Assay: EMSA; no CesT
Conditions: protein: recombinant; tags: GST tag, cleaved by PreScission (pGEX-6P-1); chain copies: 2; label: none (ethidium bromide stain); single strand, heated to 80 C and slowly cooled

Chain of CsrA (B7UHB4 whole entry): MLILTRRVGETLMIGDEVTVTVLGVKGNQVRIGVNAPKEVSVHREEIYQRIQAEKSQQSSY

## CACUAAUAAUAUCAAUGGAUUGAUAUUAUUAAUG (structured_RNA) [nleA 5'UTR RNA]
  binding result: binds
